Experimental data from patent publication US20020019014A1, “Methods of identifying prosaposin receptor agonists and antagonists” (priority 1997, published 2002).
Entries after “also recorded” stand apart in the source; their conditions may differ. Read-outs that look alike come from different tables or passages of the source.

B1: saposin C: heat-stable glycoprotein generated by proteolytic processing of prosaposin (protein, UniProt P07602 311-390, looked up)
Saposin-C: SDVYCEVCEFLVKEVTKLIDNNKTEKEILDAFDKMCSKLPKSLSEECQEVVDTYGSSILSILLEEVSPELVCSMLHLCSG
modifications: Saposin-C
B2: prosaposin: 70 kilodalton glycoprotein, precursor of saposins A, B, C and D (protein, UniProt P07602 17-524, looked up)
pro-form: GPVLGLKECTRGSAVWCQNVKTASDCGAVKHCLQTVWNKPTVKSLPCDICKDVVTAAGDMLKDNATEEEILVYLEKTCDWLPKPNMSASCKEIVDSYLPVILDIIKGEMSRPGEVCSALNLCESLQKHLAELNHQKQLESNKIPELDMTEVVAPFMANIPLLLYPQDGPRSKPQPKDNGDVCQDCIQMVTDIQTAVRTNSTFVQALVEHVKEECDRLGPGMADICKNYISQYSEIAIQMMMHMQPKEICALVGFCDEVKEMPMQTLVPAKVASKNVIPALELVEPIKKHEVPAKSDVYCEVCEFLVKEVTKLIDNNKTEKEILDAFDKMCSKLPKSLSEECQEVVDTYGSSILSILLEEVSPELVCSMLHLCSGTRLPALTVHVTQPKDGGFCEVCKKLVGYLDRNLEKNSTKQEILAALEKGCSFLPDPYQKQCDQFVAEYEPVLIEILVEVMDPSFVCLKIGACPSAHKPLLGTEKCIWGPSYWCQNTETAAQCNAVEHCKRHVWN
modifications: pro-form
notes: 70 kilodalton glycoprotein, precursor of saposins A, B, C and D
B3: saposin A: saposin from prosaposin; inactive compound that binds the receptor without stimulating effector functions (protein, UniProt P07602 60-142, looked up)
Saposin-A: SLPCDICKDVVTAAGDMLKDNATEEEILVYLEKTCDWLPKPNMSASCKEIVDSYLPVILDIIKGEMSRPGEVCSALNLCESLQ
modifications: Saposin-A

Legend:
[1] = system: Newborn mouse cerebellar explants; settings: as described in U.S. Pat. No. 5,571,787 and PCT/US94/08453; cited from earlier work
NS20Y cells = settings: as described in U.S. Pat. No. 5,571,787 and PCT/US94/08453, cited from earlier work
[2] = system: NS20Y neuroblastoma cells; settings: as described in U.S. Pat. No. 5,571,787 and PCT/US94/08453; cited from earlier work
MAPK = experiment: MAP kinase (MAPK) phosphorylation assay; format: cell-based; settings: after binding to the prosaposin receptor
Method: PC12 cells are grown to 85% confluence in DME high glucose media containing 10% FBS, 5% horse serum, 100 U/ml penicillin, 100 μg/ml streptomycin and 250 pg/ml fimgizone. Approximately 2×10^6 cells per 100 mm plate are placed in serum-free media for 24 hours prior to addition of compounds capable of binding to the prosaposin receptor. Positive controls are as described previously. Cells are stimulated with the compound of interest, then lysed on ice in 1 ml of 50 mM Tris-HCl, pH 8.0, 150 mM NaCl, 1 mM EGTA, pH 8.0, 100 mM NaF, pH 8.0, 10% glycerol, 1.5 mM MgCl2. 1% (v/v) Triton X-100, 1 mM sodium orthovanadate, 1 mM phenylmethylsulfonyl fluoride (PMSF), 10 μg/ml leupeptin, 20 μg/ml aprotinin. Unsolubilized materials are removed by ultracentrifugation at 12,000 x g at4° C.
Equal amounts of cell lysates are resolved by sodium dodecyl sulfate-polyacrylamide gel electrophoresis (SDS-PAGE) and transferred to a PVDF membrane (Millipore, Bedford, Mass.). Phosphorylated MAPK is identified using PhosphoPlus™ MAPK antibody and an alkaline phosphatase conjugated secondary antibody that emits light in the presence of a chemiluminescent substrate (New England Biolabs, Beverly, Mass.). […] Densitometric data are expressed as a ratio of MAPK-P absorbance units divided by MAPK-C absorbance units. […]

prosaposin receptor [3] = settings: cited from earlier work
several proteins = settings: cited from earlier work
prosaposin receptor [4] = settings: cited from earlier work; remark: listed apart in the source

phosphorylation of MAPK (MAPK) | Molecule | stimulation of myelination [1] | prevention of neural cell death (NS20Y cells) | neurite outgrowth [2] | binding to receptor (prosaposin receptor [3]) | prevention of neural cell death (NS20Y cells; listed as Prosaposin) | incorporation of 32P into several proteins (several proteins) | stimulation of receptor effector functions (prosaposin receptor [4])
stimulate phosphorylation of MAPK | B1 | stimulate myelination | prevent neuronal cell death; also recorded: prevent neural cell death | induce neurite outgrowth | – | – | – | –
stimulate phosphorylation of MAPK | B2 | stimulate myelination | prevent neural cell death | induce neurite outgrowth | binds to a cell surface receptor | prevent neuronal cell death | stimulates incorporation of ^32P into several proteins | –
– | B3 | – | – | – | binds to the receptor | – | – | without stimulating any of its effector functions
